Assay results: article PMC2213532 (The Journal of Experimental Medicine, 2000)
Residues, ends and D or L forms follow the SMILES beside them.

Tests used:
[1] = target: soluble H-2D^b; assay: radioligand binding
[2] = target: soluble H-2D^b (Mus musculus, UniProt P01899); assay: biochemical; assay type: binding
Sequence of soluble H-2D^b (Mus musculus, UniProt P01899) (P01899 25-362): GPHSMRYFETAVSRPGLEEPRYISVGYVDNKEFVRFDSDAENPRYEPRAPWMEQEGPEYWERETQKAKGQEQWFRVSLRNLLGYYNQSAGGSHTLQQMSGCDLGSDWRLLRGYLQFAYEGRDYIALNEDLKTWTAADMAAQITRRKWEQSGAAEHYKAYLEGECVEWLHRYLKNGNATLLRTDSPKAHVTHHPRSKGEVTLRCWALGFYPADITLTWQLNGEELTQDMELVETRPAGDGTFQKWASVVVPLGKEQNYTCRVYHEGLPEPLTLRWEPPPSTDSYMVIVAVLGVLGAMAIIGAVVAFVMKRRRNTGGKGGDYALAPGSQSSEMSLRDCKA
Sequence of soluble H-2D^b (Mus musculus, UniProt P01899) (P01887 21-119, further chain): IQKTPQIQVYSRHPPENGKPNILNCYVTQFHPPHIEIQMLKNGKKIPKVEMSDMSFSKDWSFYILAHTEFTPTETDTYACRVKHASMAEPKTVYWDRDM

Compound	IC50 [1] [nM]	IC50 [2] [nM]
NP_(366-374) peptide of A/Memphis/102/72	6	–
CSCC[C@H](NC(=O)[C@@H](NC(=O)[C@H](CC(=O)O)NC(=O)[C@H](CCSC)NC(=O)[C@H](CC(N)=O)NC(=O)[C@H](CCC(=O)O)NC(=O)[C@H](CC(N)=O)NC(=O)[C@H](CO)NC(=O)[C@H](C)N)[C@@H](C)O)C(=O)O [NP366-374] (H-ASNENMDTM-OH)	–	6
